Experimental data: PMC10163058

Tests used:
[1] = biological target: paired immunoglobulin-like receptor B (PirB), expressed on CHO cells (mouse) (UniProt P97484)
[2] = biological target: paired immunoglobulin-like receptor B (PirB), expressed on CHO cells (mouse) (UniProt P97484); remark: listed apart in the source
[3] = biological target: His6-tagged recombinant PirB (Abcam #ab276923) (mouse) (UniProt P97484); assay: atomic force microscopy (single-molecule force spectroscopy); His6-PirB held on Ni2+-NTA gold-coated model surfaces; AFM tips functionalised with T3SA- virions or σ3 through a PEG linker; virus buffer; koff from Bell-Evans fit of dynamic force spectroscopy, kon from binding probability against contact time (pseudo-first-order), KD calculated from both

| Substance | tyrosine phosphorylation of immunoprecipitated myc-tagged PirB in CHO cells after T3SA+ adsorption (immunoblot with pTyr-specific mAb cocktail) [1] | decrease in infection of primary murine cortical neurons (endogenous PirB) by T3SA+ (100 PFU/cell) after incubation with 5 μg/ml PirB-specific mAb 6C1, IFA [2] | Kd [3] | koff [3] | kon [3] |
| --- | --- | --- | --- | --- | --- |
| reovirus strain T3SA+ virions (from UniProt P03528 1-455; P07939 1-365) (complex) | > 3 fold | 50% |  |  |  |
| reovirus strain T3SA- virions (from UniProt P03528 1-455; P07939 1-365) (complex) |  |  | 1.94 nM | 0.2 s⁻¹ | 1.03e+08 M⁻¹ s⁻¹ |
